The source of these data is publication PMC8437459.

For the data set, the target named is T1, MgaSpn (Streptococcus pneumoniae D39 (JH1900)) (UniProt A0A0H2ZN44).
T1 sequence: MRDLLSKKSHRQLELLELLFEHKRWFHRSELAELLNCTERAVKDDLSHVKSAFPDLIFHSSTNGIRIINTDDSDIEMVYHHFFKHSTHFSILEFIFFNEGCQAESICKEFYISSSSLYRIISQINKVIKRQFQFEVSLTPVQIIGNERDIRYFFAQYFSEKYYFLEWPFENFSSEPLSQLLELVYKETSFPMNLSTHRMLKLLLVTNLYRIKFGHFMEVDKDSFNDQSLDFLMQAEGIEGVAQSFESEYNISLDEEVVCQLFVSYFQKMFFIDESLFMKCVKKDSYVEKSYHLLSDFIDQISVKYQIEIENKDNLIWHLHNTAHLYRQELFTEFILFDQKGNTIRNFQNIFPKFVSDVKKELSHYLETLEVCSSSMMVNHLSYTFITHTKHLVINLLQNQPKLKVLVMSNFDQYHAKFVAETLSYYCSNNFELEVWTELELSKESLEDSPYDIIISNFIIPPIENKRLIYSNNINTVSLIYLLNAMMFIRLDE
Briefly: EMSA.

As for “TACACATCTGCTTCTAAAATATTGTTAGAAAACGATTTGACTGTCCTGATCAATTTGTCATGTTCTTATTTCATTTTACTATATTTTTGGTTCGCGGGAAGTCTACTAAGATACTTAAAGATGCAGATAGTGAAAAAAGGTGTAGACATTACCGTAAAAAAGTGATATAATCGTAAGATGTTCAATGTATAGGTGTTAATCATGAGTAGACGTTTTAA (double strand) [Pcps probe (EMSA)]”, the binding entry is listed as “binds”.
